{"source": "patent US6534629B1", "about": "“Nematode-extracted serine protease inhibitors and anticoagulant proteins” (priority 1994, dated 2003)", "molecules": {"B1": {"name": "Pro-AcaNAP5: AcaNAP5 with four additional N-terminal amino acids, SEQ. ID. NO. 7, made in COS cells (protein)", "chain": "RTVRKAYPECGENEWLDDCGTQKPCEAKCNEEPPEEEDPICRSRGCLLPPACVCKDGFYRDTVIGDCVREEECDQHEIIHV"}, "B2": {"name": "AcaNAPc2: NAP of Ancylostoma caninum isolated by phage display, SEQ. ID. NO. 59; fVIIa/TF inhibitor (protein)", "chain": "KATMQCGENEKYDSCGSKECDKKCKYDGVEEEDDEEPNVPCLVRVCHQDCVCEEGFYRNKDDKCVSAEDCELDNMDFIYPGTRN"}, "B3": {"name": "AceNAP4: NAP of Ancylostoma ceylanicum with two NAP domains, SEQ. ID. NO. 62 (protein)", "chain": "KPNNVMTNACGLNEYFAECGNMKECEHRCNEEENEERDEERITACLIRVCFRPGACVCKDGFYRNRTGSCVEEDDCEYENMEFITFAPEVPICGSNERYSDCGNDKQCERKCNEDDYEKGDEACRSHVCERPGACVCEDGFYRNKKGSCVESDDCEYDNMDFITFAPETSR"}, "B4": {"name": "AcaNAPc2P: AcaNAPc2 with an additional proline residue at the C-terminus (protein)", "chain": "KATMQCGENEKYDSCGSKECDKKCKYDGVEEEDDEEPNVPCLVRVCHQDCVCEEGFYRNKDDKCVSAEDCELDNMDFIYPGTRNP"}, "B5": {"name": "AcaNAP42: NAP of Ancylostoma caninum, SEQ. ID. NO. 47; AcaNAP31, 42 and 46 encode identical proteins (protein)", "chain": "KSLWDQKCGENERLDCGNQKDCERKCDDKRSEEEIMQACLTRQCLPPVCVCEDGFYRNDNDQCVDEEECNMEFITFAP"}, "B6": {"name": "AcaNAP6: NAP of Ancylostoma caninum, SEQ. ID. NO. 6; recombinant, made in Pichia pastoris (protein)", "chain": "KAYPECGENEWLDVCGTKKPCEAKCSEEEEEDPICRSFSCPGPAACVCEDGFYRDTVIGDCVKEEECDQHEIIHV"}}, "key": {"[1]": {"tested_on": "FeCl3-induced platelet-dependent arterial thrombosis", "experiment": "Rat model of FeCl3-induced platelet-dependent arterial thrombosis, intravenous administration", "assay_type": "in vivo", "conditions": "dose that prevents complete thrombotic occlusion in 50% of animals", "method": "The antithrombotic (prevention of thrombus formation) properties of NAP were evaluated using the established experimental rat model of acute vascular thrombosis.\nThe rat FeCl3 model is a well characterized model of platelet dependent, arterial thrombosis which has been used to evaluate potential antithrombotic compounds. Kurz, K. D., Main, B. W., and Sandusky, G. E., Thromb. Res., 60: 269-280 (1990). In this model a platelet-rich, occlusive thrombus is formed in a segment of the rat carotid artery treated locally with a fresh solution of FeCl3 absorbed to a piece of filter paper. The FeCl3 is thought to diffuse into the treated segment of artery and cause de-endothelialization of the affected vessel surface. […] The net result is occlusive thrombus formation. The effect of a test compound on the incidence of occlusive thrombus formation following application of FeCl3 is monitored by ultrasonic flowtometry and is used as the primary end point. […]\nFollowing surgery the animals were randomized in either a control (saline) or treatment (recombinant AcaNAP5) group. […] Blood pressure, blood flow, heart rate, and respiration were monitored for 60 minutes. The incidence of occlusion (defined as the attainment of zero blood flow) was recorded as the primary end point."}, "[2]": {"tested_on": "normal citrated human plasma", "experiment": "Activated partial thromboplastin time (aPTT) assay", "assay_type": "biochemical", "conditions": "concentration that doubled the control clotting time (28.5 seconds) of normal human plasma", "method": "(§1) The ex vivo anticoagulant effects of NAPs of the present invention in human plasma were evaluated by measuring the prolongation of the activated partial thromboplastin time (aPTT) and prothrombin time (PT) over a broad concentration range of each inhibitor.\n(§2) Fresh frozen pooled normal citrated human plasma was obtained from George King Biomedical, Overland Park, Kans. Respective measurements of aPTT and PT were made using the Coag-A-Mate RA4 automated coagulometer (General Diagnostics, Organon Technica, Oklahoma City, Okla.) using the Automated aPTT Platelin® reagent (Organon Technica, Durham, N.C.) and Simplastin® Excel (Organon Technica, Durham, N.C.) respectively, as initiators of clotting according to the manufacturer's instructions.\n(§3) The assays were conducted by making a series of dilutions of each tested NAP in rapidly thawed plasma followed by adding 200 microliters or 100 microliters of the above referenced reagents to the wells of the assay carousel for the aPTT or PT measurements, respectively. Alternatively, the NAPs were serially diluted into HBSA and 10 μl of each dilution were added to 100 μl of normal human plasma in the wells of the Coag-A-Mate assay carousel, followed by addition of reagent.\n(§4) Concentrations of NAP were plotted against clotting time, and a doubling time concentration was calculated, i.e., a specified concentration of NAP that doubled the control clotting time of either the PT or the aPTT."}, "[3]": {"tested_on": "normal citrated human plasma", "experiment": "Prothrombin time (PT) assay", "assay_type": "biochemical", "conditions": "for Doubling Concentration (nM) in the PT: concentration that doubled the control clotting time (12.1 seconds) of normal human plasma; for coagulation time of human plasma (Prothrombin Time Assay), in words: P. pastoris culture supernatant / growth media", "method": "as §1, §2, §3\nas §4, with “aPTT. The control clotting times (absence of NAP) in the PT and APTT were 12.1 seconds and 28.5 seconds, respectively.” for “aPTT.”"}, "[4]": {"molecular_target": "human rFVIIa/rTF/PLV complex", "experiment": "Factor VIIa/Tissue factor amidolytic assay", "assay_type": "biochemical", "method": "Lyophilized, purified, recombinant human factor VIIa was obtained from BiosPacific, Inc. (Emeryville, Calif.), and reconstituted in HBS (10 mM HEPES, pH 7.5, 150 mM sodium chloride) prior to use. Purified human Factor X was obtained from Enzyme Research Laboratories, Inc. (South Bend, Ind.) and Factor Xa (free FXa) was activated and prepared from Factor X as described (Bock, P. E., Craig, P. A., Olson, S. T., and Singh, P. Arch. Biochem. Biophys. 273: 375-388 (1989)). Active site-blocked human Factor Xa (EGR-FXa), which had been irreversibly inactivated with L-Glutamyl-L-glycyl-L-arginyl chloromethylketone, was obtained from Haematologic Technologies, Inc. (Essex Junction, Vt.). Recombinant human tissue factor (rTF) was produced by a baculovirus-expression system, and purified to homogeneity by monoclonal antibody affinity chromatography (Corvas International, Inc., San Diego, Calif.).\nThe purified rTF apoprotein was incorporated into phospholipid vesicles (rTF/PLV), consisting of phosphotidyl choline (75%, w/v) and phosphotidyl serine (25%, w/v) in the presence of detergent, as described by Ruf et al. (Ruf, W., Miles, D. J., Rehemtulla, A., and Edgington, T. S. Methods in Enzymology 222: 209-224 (1993)). The phospholipids were purchased from Avanti Polar Lipids, (Alabaster, Ala.). The buffer used for all assays was HBSA, HBS containing 0.1% (w/v) bovine serum albumin. All reagents were obtained from Sigma Chemical Cb. (St. Louis, Mo.), unless otherwise indicated.\nrFVIIa/rTF amidolytic activity was determined using the chromogenic substrate S-2288 (H-D-isoleucyl-L-prolyl-L-arginine-p-nitroaniline), obtained from Kabi Pharmacia Hepar, Inc. (Franklin, Ohio). The substrate was reconstituted in deionized water prior to use. rFVIIa and rTF/PLV were combined in a polypropylene test tube, and allowed to form a complex for 10 min in HBSA, containing 3 mM CaCl2. […] Following an incubation of 30 min at ambient temperature, the triplicate reactions were initiated by adding 50 μL of S-2288.\nThe amidolytic activity of rFVIIa/rTF/PLV was measured as a linear increase in the absorbance at 405 nm over 10 min (velocity), using a Thermo Max® Kinetic Microplate Reader (Molecular Devices, Palo Alto, Calif.), under steady-state conditions, where less than 5% of the substrate was consumed. Ratios of inhibited pre-equilibrium, steady-state velocities (Vi), in the presence of NAP, to the uninhibited velocity in the presence of free fXa alone (Vo) were plotted against the corresponding concentrations of NAP."}, "[5]": {"tested_on": "acute coronary artery thrombosis", "experiment": "Pig model of acute coronary artery thrombosis", "assay_type": "in vivo", "conditions": "for Time of Occulsion: non-occluded vessels assigned 240 minutes", "text": "The protocol used in these studies is a modification of a thrombosis model which has been reported previously (Lucchesi, B. R., et al., (1994), Brit. J. Pharmacol. 113: 1333-1343).\nAnimals were anesthetized and instrumented with arterial and venous catheters (left common carotid and external jugular, respectively). A thoracotomy was made in the 4th intercostal space and the heart was exposed. The left anterior descending (LAD) coronary artery was isolated from the overlying connective tissue and was instrumented with a Doppler flow probe and a 17 gauge ligature stenosis. An anodal electrode also was implanted inside the vessel.\nBaseline measurements were taken and the NAP or placebo to be tested was administered via the external jugular vein. Five minutes after administration, a direct current (300 μA, DC) was applied to the stimulating electrode to initiate intimal damage to the coronary endothelium and begin thrombus formation. Current continued for a period of 3 hours. Animals were observed until either 1 hour after the cessation of current or the death of the animal, whichever came first.\nThe incidence of occlusion in the animals receiving placebo was 8/8 (100%). Time to occlusion in placebo treated animals was 66.6±7.5 min. (mean±sem)."}, "[6]": {"conditions": "No FXa Addition, read-out: Ki* (pM) Amidolytic Assay, No FXa Addition"}}, "note": "Read-outs that look alike come from different tables or passages of the source. Marks after values point to notes of the source that are not given here.", "data": [{"molecule": "rTAP: recombinant Tick Anticoagulant Peptide, 60 amino acid factor Xa inhibitor from Ornithodoros moubata (YNRLCIKPRDWIDECDSNEGGERAYFRNGKGGCDSFWICPEDHTGADYYSSYRDCFNACI; UniProt P17726 1-60, looked up)", "values": [{"measurement": "ED50", "setting": "[1]", "value": 0.6, "unit": "mg/kg"}]}, {"molecule": "CC1CNc2c(cccc2S(=O)(=O)N[C@@H](CCCNC(=N)N)C(=O)N2CC[C@@H](C)C[C@@H]2C(=O)O)C1", "note": "(some centres unmarked) [Argatroban]", "values": [{"measurement": "ED50", "setting": "[1]; read-out: ED50", "value": 3.8, "unit": "mg/kg"}]}, {"molecule": "B1", "values": [{"measurement": "Doubling Concentration (nM) in the aPTT", "setting": "[2]", "value": 31.0, "unit": "nM"}, {"measurement": "Doubling Concentration (nM) in the PT", "setting": "[3]", "value": 21.9, "unit": "nM"}]}, {"molecule": "B2", "values": [{"measurement": "Ki", "setting": "[4]; [6]", "value": "> 1500", "unit": "pM"}, {"measurement": "Doubling Concentration (nM) in the PT", "setting": "[3]", "value": "15 ± 1", "unit": "nM"}]}, {"molecule": "B3", "values": [{"measurement": "Doubling Concentration (nM) in the aPTT", "setting": "[2]", "value": "115 ± 12", "unit": "nM"}, {"measurement": "Doubling Concentration (nM) in the PT", "setting": "[3]", "value": "40 ± 4", "unit": "nM"}]}, {"molecule": "B4", "values": [{"measurement": "Incidence of Occlusion", "setting": "[5]; 0.01 mg/kg i.v.", "value": "6/6"}, {"measurement": "Total Blood Loss", "setting": "[5]; 0.01 mg/kg i.v.", "value": "1.6 ± 0.3", "unit": "mL"}, {"measurement": "Time of Occulsion", "setting": "[5]; 0.01 mg/kg i.v.", "value": "105 ± 6.2", "unit": "min"}, {"measurement": "Incidence of Occlusion", "setting": "[5]; 0.03 mg/kg i.v.", "value": "4/6"}, {"measurement": "Total Blood Loss", "setting": "[5]; 0.03 mg/kg i.v.", "value": "4.9 ± 1.4", "unit": "mL"}, {"measurement": "bleeding, in words", "setting": "[5]; 0.03 mg/kg i.v.", "value": "did not produce significant elevations in bleeding"}, {"measurement": "time to occlusion, in words", "setting": "[5]; 0.03 mg/kg i.v.", "value": "significantly prolonged"}, {"measurement": "Time of Occulsion", "setting": "[5]; 0.03 mg/kg i.v.", "value": "159 ± 27", "unit": "min"}, {"measurement": "Incidence of Occlusion", "setting": "[5]; 0.10 mg/kg i.v.", "value": "2/6†"}, {"measurement": "Total Blood Loss", "setting": "[5]; 0.10 mg/kg i.v.", "value": "17.6 ± 7.9", "unit": "mL"}, {"measurement": "Time of Occulsion", "setting": "[5]; 0.10 mg/kg i.v.", "value": "215 ± 25", "unit": "min"}, {"measurement": "in vitro activity in inhibitory assays of rFVIIa/rTF activity, compared with AcaNAPc2", "setting": "[4]", "value": "substantially the same as AcaNAPc2"}, {"measurement": "coagulation time of human plasma (Prothrombin Time Assay), in words", "setting": "[3]", "value": "prolongation of the coagulation time of human plasma"}]}, {"molecule": "B5", "values": [{"measurement": "coagulation time of human plasma (Prothrombin Time Assay), in words", "setting": "[3]", "value": "prolongation of the coagulation time of human plasma"}]}, {"molecule": "B6", "values": [{"measurement": "Ki", "setting": "[4]; [6]", "value": "> 1500", "unit": "pM"}, {"measurement": "Ki", "setting": "[4]; Plus EGR-FXa (2.5 nM), read-out: Ki* (pM) Amidolytic Assay, Plus EGR-FXa", "value": "> 1500", "unit": "pM"}, {"measurement": "Doubling Concentration (nM) in the aPTT", "setting": "[2]", "value": "62 ± 0", "unit": "nM"}, {"measurement": "Doubling Concentration (nM) in the PT", "setting": "[3]", "value": "37 ± 3", "unit": "nM"}]}]}
